Here are results for 25 molecules from paper PMC6804253, “Predicting and Experimentally Validating Hot-Spot Residues at Protein–Protein Interfaces” (ACS Chemical Biology, 2019).

Substitutions are numbered along the chain they refer to.

First the molecules themselves.
B1: 1A4Y YA437A (protein, UniProt P13489 2-461, looked up, variant Y437A)
Ribonuclease inhibitor: SLDIQSLDIQCEELSDARWAELLPLLQQCQVVRLDDCGLTEARCKDISSALRVNPALAELNLRSNELGDVGVHCVLQGLQTPSCKIQKLSLQNCCLTGAGCGVLSSTLRTLPTLQELHLSDNLLGDAGLQLLCEGLLDPQCRLEKLQLEYCSLSAASCEPLASVLRAKPDFKELTVSNNDINEAGVRVLCQGLKDSPCQLEALKLESCGVTSDNCRDLCGIVASKASLRELALGSNKLGDVGMAELCPGLLHPSSRLRTLWIWECGITAKGCGDLCRVLRAKESLKELSLAGNELGDEGARLLCETLLEPGCQLESLWVKSCSFTAACCSHFSSVLAQNRFLLELQISNNRLEDAGVRELCQGLGQPGSVLRVLWLADCDVSDSSCSSLAATLLANHSLRELDLSNNCLGDAGILQLVESVRQPGCLLEQLVLYDIAWSEEMEDRLQALEKDKPSLRVIS
B2: 1A4Y IA459A (protein, UniProt P13489 2-461, looked up, variant I459A)
Ribonuclease inhibitor: B1 Ribonuclease inhibitor with A437Y, I459A
B3: 1AHW YC157A (protein, UniProt P13726 33-251, looked up, variant Y157A)
extracellular domain: SGTTNTVAAYNLTWKSTNFKTILEWEPKPVNQVYTVQISTKSGDWKSKCFYTTDTECDLTDEIVKDVKQTYLARVFSYPAGNVESTGSAGEPLYENSPEFTPYLETNLGQPTIQSFEQVGTKVNVTVEDERTLVRRNNTFLSLRDVFGKDLIYTLYAWKSSSSGKKTAKTNTNEFLIDVDKGENYCFSVQAVIPSRTVNRKSTDSPVECMGQEKGEFRE
modifications: extracellular domain
B4: 1DAN VU179A (protein, UniProt P13726 33-251, looked up, variant V179A)
extracellular domain: B3 extracellular domain with A157Y, V179A
modifications: extracellular domain
B5: 1DAN VU198A (protein, UniProt P13726 33-251, looked up, variant V198A)
extracellular domain: B3 extracellular domain with A157Y, V198A
modifications: extracellular domain
B6: 1DAN VU146A (protein, UniProt P13726 33-251, looked up, variant V146A)
extracellular domain: B3 extracellular domain with V146A, A157Y
modifications: extracellular domain
B7: 1DAN FT76A (protein, UniProt P13726 33-251, looked up, variant F76A)
extracellular domain: B3 extracellular domain with F76A, A157Y
modifications: extracellular domain
B8: 1DAN VT64A (protein, UniProt P13726 33-251, looked up, variant V64A)
extracellular domain: B3 extracellular domain with V64A, A157Y
modifications: extracellular domain
B9: 1DAN YU157A (protein, UniProt P13726 33-251, looked up, variant Y157A)
extracellular domain: B3 extracellular domain
modifications: extracellular domain
B10: 1DAN FT50A (protein, UniProt P13726 33-251, looked up, variant F50A)
extracellular domain: B3 extracellular domain with F50A, A157Y
modifications: extracellular domain
B11: 1DAN VU207A (protein, UniProt P13726 33-251, looked up, variant V207A)
extracellular domain: B3 extracellular domain with A157Y, V207A
modifications: extracellular domain
B12: 1DAN WT45A (protein, UniProt P13726 33-251, looked up, variant W45A)
extracellular domain: B3 extracellular domain with W45A, A157Y
modifications: extracellular domain
B13: 1DAN YT51A (protein, UniProt P13726 33-251, looked up, variant Y51A)
extracellular domain: B3 extracellular domain with Y51A, A157Y
modifications: extracellular domain
B14: 1DAN YT78A (protein, UniProt P13726 33-251, looked up, variant Y78A)
extracellular domain: B3 extracellular domain with Y78A, A157Y
modifications: extracellular domain
B15: 1AHW VC198A (protein, UniProt P13726 33-251, looked up, variant V198A)
extracellular domain: B3 extracellular domain with A157Y, V198A
modifications: extracellular domain
B16: 1DAN IT22A (protein, UniProt P13726 33-251, looked up, variant I22A)
extracellular domain: B3 extracellular domain with I22A, A157Y
modifications: extracellular domain
B17: 1DAN LT72A (protein, UniProt P13726 33-251, looked up, variant L72A)
extracellular domain: B3 extracellular domain with L72A, A157Y
modifications: extracellular domain
B18: 1AHW LC176A (protein, UniProt P13726 33-251, looked up, variant L176A)
extracellular domain: B3 extracellular domain with A157Y, L176A
modifications: extracellular domain
B19: 1DAN YU94A (protein, UniProt P13726 33-251, looked up, variant Y94A)
extracellular domain: B3 extracellular domain with Y94A, A157Y
modifications: extracellular domain
B20: 1DAN LU133A (protein, UniProt P13726 33-251, looked up, variant L133A)
extracellular domain: B3 extracellular domain with L133A, A157Y
modifications: extracellular domain
B21: 1DAN VT33A (protein, UniProt P13726 33-251, looked up, variant V33A)
extracellular domain: B3 extracellular domain with V33A, A157Y
modifications: extracellular domain
B22: 1DAN VT36A (protein, UniProt P13726 33-251, looked up, variant V36A)
extracellular domain: B3 extracellular domain with V36A, A157Y
modifications: extracellular domain
B23: 1DAN FU140A (protein, UniProt P13726 33-251, looked up, variant F140A)
extracellular domain: B3 extracellular domain with F140A, A157Y
modifications: extracellular domain
B24: 1DAN IU152A (protein, UniProt P13726 33-251, looked up, variant I152A)
extracellular domain: B3 extracellular domain with I152A, A157Y
modifications: extracellular domain
B25: 1DAN LT59A (protein, UniProt P13726 33-295, looked up, variant L59A)
Tissue factor: SGTTNTVAAYNLTWKSTNFKTILEWEPKPVNQVYTVQISTKSGDWKSKCFYTTDTECDATDEIVKDVKQTYLARVFSYPAGNVESTGSAGEPLYENSPEFTPYLETNLGQPTIQSFEQVGTKVNVTVEDERTLVRRNNTFLSLRDVFGKDLIYTLYYWKSSSSGKKTAKTNTNEFLIDVDKGENYCFSVQAVIPSRTVNRKSTDSPVECMGQEKGEFREIFYIIGAVVFVVIILVIILAISLHKCRKAGVGQSWKENSPLNVS

The first assay has as its system PPIs of the SKEMPI data set (by PDBID).
Experiment: not given
The conditions noted are these: single mutation to alanine, sheet sortedByGroup, r_group FAMILYVW; ref SKEMPI; cited from earlier work.
On to B1, for which the “sk_ddG_kJ (SKEMPI experimental ΔΔG)” value was 3.43 kJ.
As to B2, the “sk_ddG_kJ (SKEMPI experimental ΔΔG)” value is reported as 2.80 kJ.
On to B3, for which the “sk_ddG_kJ (SKEMPI experimental ΔΔG)” value is reported as -7.91 kJ.
In the case of B4, the “sk_ddG_kJ (SKEMPI experimental ΔΔG)” value is 0.46 kJ.
As to B5, the “sk_ddG_kJ (SKEMPI experimental ΔΔG)” value is 0.46 kJ.
For the molecule B6, the “sk_ddG_kJ (SKEMPI experimental ΔΔG)” value was 0.84 kJ.
Take B7: the “sk_ddG_kJ (SKEMPI experimental ΔΔG)” value was 4.81 kJ.
As for B8, the “sk_ddG_kJ (SKEMPI experimental ΔΔG)” value is 0.00 kJ.
Regarding B9, the “sk_ddG_kJ (SKEMPI experimental ΔΔG)” value is reported as 0.00 kJ.
As to B10, the “sk_ddG_kJ (SKEMPI experimental ΔΔG)” value is recorded as 1.84 kJ.
B11: the “sk_ddG_kJ (SKEMPI experimental ΔΔG)” value is on record as 6.57 kJ.
For B12, the “sk_ddG_kJ (SKEMPI experimental ΔΔG)” value is recorded as 6.53 kJ.
On to B13, for which the “sk_ddG_kJ (SKEMPI experimental ΔΔG)” value is listed as -0.54 kJ.
On to B14, for which the “sk_ddG_kJ (SKEMPI experimental ΔΔG)” value is recorded as 2.72 kJ.
As to B15, the “sk_ddG_kJ (SKEMPI experimental ΔΔG)” value was -1.30 kJ.
As for B16, the “sk_ddG_kJ (SKEMPI experimental ΔΔG)” value is recorded as 2.72 kJ.
As to B17, the “sk_ddG_kJ (SKEMPI experimental ΔΔG)” value was -0.25 kJ.
As to B18, the “sk_ddG_kJ (SKEMPI experimental ΔΔG)” value is recorded as 4.14 kJ.
In the case of B19, the “sk_ddG_kJ (SKEMPI experimental ΔΔG)” value is given as 4.31 kJ.
As for B20, the “sk_ddG_kJ (SKEMPI experimental ΔΔG)” value is given as -0.08 kJ.
With B21, the “sk_ddG_kJ (SKEMPI experimental ΔΔG)” value was -0.79 kJ.
As for B22, the “sk_ddG_kJ (SKEMPI experimental ΔΔG)” value is -0.54 kJ.
As to B23, the “sk_ddG_kJ (SKEMPI experimental ΔΔG)” value is 5.40 kJ.
With B24, the “sk_ddG_kJ (SKEMPI experimental ΔΔG)” value is given as 0.75 kJ.
As to B25, the “sk_ddG_kJ (SKEMPI experimental ΔΔG)” value is listed as 0.00 kJ.

Another assay shares this test system. The experiment in a line: SKEMPI experimental ΔΔG, single mutations to alanine. The format is binding. The conditions noted are these: class of the SKEMPI experimental ΔΔG.
Regarding B1, the sk_class entry was “Neutral (neutral (little effect) 4.184 kJ/mol < ΔΔG > −4.184 kJ/mol)”.
In the case of B2, the sk_class entry was “Neutral (neutral (little effect) 4.184 kJ/mol < ΔΔG > −4.184 kJ/mol)”.
The same measure, in the same setting: the entry for B3 is “Negative (negative (affinity enhancing) ΔΔG ≤ −4.184 kJ/mol)”; for B4 it is “Neutral (neutral (little effect) 4.184 kJ/mol < ΔΔG > −4.184 kJ/mol)”; for B5 it is “Neutral (neutral (little effect) 4.184 kJ/mol < ΔΔG > −4.184 kJ/mol)”.
Consider B6, for which the sk_class result is on record as “Neutral (neutral (little effect) 4.184 kJ/mol < ΔΔG > −4.184 kJ/mol)”.
Take B7: the sk_class result is recorded as “Positive (positive (a hot residue) ΔΔG ≥ 4.184 kJ/mol)”.
The same measure, in the same setting: as for B8, the entry is “Neutral (neutral (little effect) 4.184 kJ/mol < ΔΔG > −4.184 kJ/mol)”; as for B9, “Neutral (neutral (little effect) 4.184 kJ/mol < ΔΔG > −4.184 kJ/mol)”; as for B10, “Neutral (neutral (little effect) 4.184 kJ/mol < ΔΔG > −4.184 kJ/mol)”.
Consider B11, for which the sk_class result is “Positive (positive (a hot residue) ΔΔG ≥ 4.184 kJ/mol)”.
Still for that read-out and setting: as for B12, the entry is “Positive (positive (a hot residue) ΔΔG ≥ 4.184 kJ/mol)”; as for B13, “Neutral (neutral (little effect) 4.184 kJ/mol < ΔΔG > −4.184 kJ/mol)”.
For the molecule B14, the sk_class entry is given as “Neutral (neutral (little effect) 4.184 kJ/mol < ΔΔG > −4.184 kJ/mol)”.
With B15, the sk_class entry is “Neutral (neutral (little effect) 4.184 kJ/mol < ΔΔG > −4.184 kJ/mol)”.
On the same count and under the same terms, as for B16, the entry is “Neutral (neutral (little effect) 4.184 kJ/mol < ΔΔG > −4.184 kJ/mol)”; as for B17, “Neutral (neutral (little effect) 4.184 kJ/mol < ΔΔG > −4.184 kJ/mol)”.
Same read-out and setting: as for B18, the entry is “Neutral (neutral (little effect) 4.184 kJ/mol < ΔΔG > −4.184 kJ/mol)”; as for B19, “Positive (positive (a hot residue) ΔΔG ≥ 4.184 kJ/mol)”; as for B20, “Neutral (neutral (little effect) 4.184 kJ/mol < ΔΔG > −4.184 kJ/mol)”.
With B21, the sk_class result is reported as “Neutral (neutral (little effect) 4.184 kJ/mol < ΔΔG > −4.184 kJ/mol)”.
On the same count and under the same terms, as for B22, the entry is “Neutral (neutral (little effect) 4.184 kJ/mol < ΔΔG > −4.184 kJ/mol)”; as for B23, “Positive (positive (a hot residue) ΔΔG ≥ 4.184 kJ/mol)”; as for B24, “Neutral (neutral (little effect) 4.184 kJ/mol < ΔΔG > −4.184 kJ/mol)”.
Still for that read-out and setting: as for B25, the entry is “Neutral (neutral (little effect) 4.184 kJ/mol < ΔΔG > −4.184 kJ/mol)”.
